Measurements published in patent US20220153819A1 (Regeneron, published 2022).

Experiments:
[1] = molecular target: T1, Influenza A group 1 HA Foldon.6×His (Influenza A virus (H1N1)); experiment: SPR (Biacore 8k), 37C; HA Foldon-6xHis captured via anti-His, bsAb injected
T1 construct: also called HA-6×His; HA.6×His

[2] = molecular target: T1, Influenza A group 1 HA Foldon.6×His; experiment: SPR (Biacore 8k), 25C; HA Foldon-6xHis captured via anti-His, bsAb injected

B1: REGN6093, anti-Influenza HA x anti-C1q bispecific antibody (bispecific antibody, V domains shown)
VH 1: QVHLVQSGPEVKKPGSSVKVSCKASGVTFISHAISWVRQAPGQGLEWVGGIIAIFGTTNYAQKFQGRVTVTTDKSTNTVYMELSRLRSEDTAIYYCARGETYYEGNFDFWGQGTLVTVSS
VH 2: EVQLVESGGGVVQPGGSLRLSCAASGFSLDDYAMHWVRQTPGKGLEWVSLISGDGSRTSYADSVKGRFTISRDNSKNSLYLKMNSLRTEDTALYYCTKDPHNSNWFDPWGQGTLVTVSS
VL: not shown
notes: also called FluA group 1 x C1q bispecific; anti-HA x anti-C1q
Kd [1]: 519 pM
koff [1]: 5.15e-05 s⁻¹
kon [1]: 99400 M⁻¹ s⁻¹
t½ [1]: 3.74 h
Kd [2]: 1110 pM
koff [2]: 0.000175 s⁻¹
kon [2]: 158000 M⁻¹ s⁻¹
t1/2 [2]: 1.1 h
